The experiment deals with MrgX1 (Mas-related G-protein coupled receptor member X1) (UniProt Q96LB2). Briefly: cell-based or functional assay.
Chain of MrgX1 (Mas-related G-protein coupled receptor member X1) (Q96LB2 whole entry): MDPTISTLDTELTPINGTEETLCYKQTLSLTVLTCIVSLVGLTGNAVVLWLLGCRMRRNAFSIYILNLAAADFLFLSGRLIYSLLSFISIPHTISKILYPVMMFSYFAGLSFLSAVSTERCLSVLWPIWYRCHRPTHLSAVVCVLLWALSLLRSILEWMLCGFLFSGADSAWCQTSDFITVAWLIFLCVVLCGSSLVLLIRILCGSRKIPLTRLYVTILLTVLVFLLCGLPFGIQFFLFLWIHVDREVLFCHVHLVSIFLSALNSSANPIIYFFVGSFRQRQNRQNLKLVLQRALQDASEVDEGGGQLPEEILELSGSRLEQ

For “BAM22 (bovine adrenal medulla peptide 22) (from UniProt P01211 206-227)”, the EC50 of calcium flux dose response was more than 50 nM.

The values above are taken from patent US20120129776A1.
